The experiment has as its target PSGL-1/mIgG2b produced in CHO cells with FUT2 (Se gene) and α1,3 GalNAcT (A gene) (mouse). Put plainly: western blot, chemiluminescence volumes (Fluor-S Max MultImager), anti-A signal divided by anti-mIgG signal. In general terms: In western blotting, separated proteins are transferred to a membrane and probed.

Among the data in patent US20080319173A1 are relative A epitope density (ratio of blood group A to mIgG reactivity), fold over PSGL-1/mIgG2b made in 293T cells with FUT2 and the A gene values, retold here.

Consider “mouse anti-human blood group A all types (mIgM, Dako) (antibody)”, for which the relative A epitope density (ratio of blood group A to mIgG reactivity), fold over PSGL-1/mIgG2b made in 293T cells with FUT2 and the A gene turned out to be 3 fold.
